Patent publication US20210371863, “HIGH EFFICIENCY APTAMER COMPLEX COMPRISING BRANCHED DNA AND APTAMER, AND USE THEREOF” (POSTECH ACADEMY-INDUSTRY FOUNDATION, published 2021)

Target: VEGF (hVEGF) (Homo sapiens, UniProt P15692-4 P15692-4:27-191)
Experiment: ELISA; remarkable capture efficiency after 4 h at room temperature, PD-10 column filtration; but p70 (FIG. 9) reports OA captured little hVEGF independent of serum incubation time
Conditions: quantified with hVEGF ELISA kit (Komabiotech); chain copies: 2; hairpin
Protocol: To confirm the hVEGF capture ability of OA, AA, and CA, each prepared sample was mixed with hVEGF solution for 4 hours at room temperature, and the mixed solution was filtered through a PD-10 column (Sephadex G-25, GE Healthcare, Sweden). The amount of non-purified hVEGF was measured by the hVEGF enzyme-linked immunosorbent assay kit (ELISA kit, Komabiotech) according to the manufacturer's guidelines (absorbance measurement at 490 nm by VICTOR3 V™ (Multilabel Counter, Perkin Elmer, Wellesley, Mass., USA)). The hVEGF capture ability of other samples such as OSc, ASc, and CSc was measured in the same way, and the results are shown in FIG. 10.

Sequence of VEGF (hVEGF) (P15692 other isoform, or with tags, fused parts or gaps): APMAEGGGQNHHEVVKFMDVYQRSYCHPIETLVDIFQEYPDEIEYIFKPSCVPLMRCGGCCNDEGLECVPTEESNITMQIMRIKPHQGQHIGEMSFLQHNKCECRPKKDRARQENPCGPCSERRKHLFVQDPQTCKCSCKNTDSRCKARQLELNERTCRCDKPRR

B1: OA (oligomeric hVEGF aptamer, Y_Vapt) (ssDNA)
DNA: AGCTTCAGGCGAGGAGCCCACCCCGTCTTCCAGACAAGAGTGCAGGGGTGGCGAGGAGCGGACA
binding result: binds
